{"source": "patent US8916149B2", "about": "“Preventing and treating sepsis” (University of Rochester, priority 2008, dated 2014)", "molecules": {"B1": {"name": "rhAPC: Recombinant human activated protein C obtained from Eli Lilly; FDA-approved drug for severe sepsis (protein)", "chain 1": "ANSFLEELRHSSLERECIEEICDFEEAKEIFQNVDDTLAFWSKHVDGDQCLVLPLEHPCASLCCGHGTCIDGIGSFSCDCRSGWEGRFCQREVSFLNCSLDNGGCTHYCLEEVGWRRCSCAPGYKLGDDLLQCHPAVKFPCGRPWKRMEKKRSHL", "chain 2": "LIDGKMTRRGDSPWQVVLLDSKKKLACGAVLIHPSWVLTAAHCMDESKKLLVRLGEYDLRRWEKWELDLDIKEVFVHPNYSKSTTDNDIALLHLAQPATLSQTIVPICLPDSGLAERELNQAGQETLVTGWGYHSSREKEAKRNRTFVLNFIKIPVVPHNECSEVMSNMVSENMLCAGILGDRQDACEGDSGGPMVASFHGTWFLVGLVSWGEGCGLLHNYGVYTKVSRYLDWIHGHIRDKEAPQKSWAP"}}, "key": {"[1]": {"system": "human neutrophils", "experiment": "Under-agarose migration assay (directional migration)", "assay_type": "cell-based", "details": "10 μg/ml rhAPC", "method": "Delta T dishes (Bioptechs, Butler, Pa.) were coated with fibronectin (FN). Plates were then rinsed with the appropriate media and allowed to air-dry. Molten agarose (Seakem GTG, FMC Bioproducts, Rockland, Me.) was prepared as described (Harler et al., J Immunol., 162:6792 (1999)). Two milliliters of the resulting gel was added to each dish and allowed to solidify at 4° C. for 5 min. Three wells that were 2 mm apart were prepared in the agarose using a template and a beveled punch that was coated with polymixin B. Care was taken to ensure that the plate bottom was not scratched. Punch sections were removed with an aspirator, and the gel was then equilibrated for one hour at 37° C. The wells were then aspirated and loaded with […] of one of the following: PBS (left well), a suspension containing approximately 200,000 cells (middle well), or a solution containing 5 pmol of fMLP (right well). […] The dishes were incubated for 60 min at 37° C., and then fixed with 10% buffered formalin. Counts were then made of the number of cells that had migrated 1 mm towards the right well (towards fMLP, directional migration), 0.5 mm towards the left and right wells (“straddle”), and 1 mm towards the left well (random migration). The experiments were repeated three times per condition."}, "[2]": {"system": "human neutrophils", "experiment": "Micropipette assay (directional migration toward fMLP tip)", "assay_type": "cell-based", "method": "Delta T dishes were coated with human FN (50 μg/ml, BD Biosciences, San Jose, Calif.) for overnight at 4° C. and then for 4 h at room temperature. Plates were then rinsed with L-15 media. […] The cells were then added to FN-coated dishes in 1.5 ml of L-15 with 2 mg/ml of glucose. For neutrophil live cell staining, 2 μM Green Cell Tracker CMFDA (5-chloromethylfluorescein diacetate; Molecular Probes, Carlsbad, Calif.) was used. Temperature was maintained at 37° C. throughout the experiment using a FCS2 live-cell imaging chamber (Bioptechs, Butler, Pa.). Images were acquired for 30 to 60 minutes under a 10× objective lens using a Nikon TE-2000U inverted microscope. Phase contrast images were acquired every 5 seconds and fluorescence images every 30 seconds. Cell paths were traced using MetaVue™ imaging software (Molecular Devices Corporation, Downingtown, Pa.).\nDirectional migration was investigated using a micropipette assay to analyze the dynamics of neutrophil migration on different integrin ligands. Sterile Femtotips II micropipette tips (Eppendorf, Westbury, N.Y.) were loaded with 5 μl of 1 μM fMLP and then placed on the bottom of FN-coated delta T dishes that had been pre-warmed to 37° C. Image acquisition began within 2 minutes of tip placement.\nThe time-lapsed images of migrating neutrophils were taken under phase contrast microscopy. Each image was thresholded and binarized based on brightness to define the centroids of the neutrophils. The closest centroids between consecutive images were linked as a trajectory under the assumption that these centroids were made by the same neutrophil. The maximum distance between the closest centroids was also defined to preclude the artifacts due to cells moving into and out of the field of view."}, "[3]": {"system": "human neutrophils", "experiment": "rhAPC binding to neutrophils in suspension (chromogenic substrate S-2366)", "details": "1 mM Ca2+ and 1 mM Mg2+ supplemented with 1 mM Mn2+", "method": "Control (PBS) or rhAPC-treated neutrophils were incubated with the indicated concentrations of MgCl2 and CaCl2. The LIBS of β1 and β3 integrins were detected by B44 and D3 mAb, respectively. *P<0.05 vs. PBS treated cells. […] Experiments were repeated on neutrophil preparations from three independent donors. In FIGS. 2A, 2C, 2D, 2E, and 2F, results are expressed as mean±SEM of three independent experiments.\nThe best characterized integrin binding motif is the RGD sequence, which is present in FN, fibrinogen, von Willebrand factor, vitronectin, and a variety of other adhesion proteins. Many integrins that bind to extracellular protein ligands including α3β1, α5β1, αIIbβ3, and αVβ3, specifically interact with the RGD sequence of their target proteins. […] To test this hypothesis, rhAPC-binding assays were performed with neutrophils in suspension. The assay buffer containing 1 mM Ca^2+ and 1 mM Mg^2+ was supplemented with 1 mM Mn^2+ to activate cell surface integrins."}, "[4]": {"molecular_target": "T1, α3β1 (Homo sapiens, UniProt P05556+P26006)", "T1 construct": "purchased US Biological, Swampscott, Mass", "T1 sequence (P26006 33-872 limits assumed)": "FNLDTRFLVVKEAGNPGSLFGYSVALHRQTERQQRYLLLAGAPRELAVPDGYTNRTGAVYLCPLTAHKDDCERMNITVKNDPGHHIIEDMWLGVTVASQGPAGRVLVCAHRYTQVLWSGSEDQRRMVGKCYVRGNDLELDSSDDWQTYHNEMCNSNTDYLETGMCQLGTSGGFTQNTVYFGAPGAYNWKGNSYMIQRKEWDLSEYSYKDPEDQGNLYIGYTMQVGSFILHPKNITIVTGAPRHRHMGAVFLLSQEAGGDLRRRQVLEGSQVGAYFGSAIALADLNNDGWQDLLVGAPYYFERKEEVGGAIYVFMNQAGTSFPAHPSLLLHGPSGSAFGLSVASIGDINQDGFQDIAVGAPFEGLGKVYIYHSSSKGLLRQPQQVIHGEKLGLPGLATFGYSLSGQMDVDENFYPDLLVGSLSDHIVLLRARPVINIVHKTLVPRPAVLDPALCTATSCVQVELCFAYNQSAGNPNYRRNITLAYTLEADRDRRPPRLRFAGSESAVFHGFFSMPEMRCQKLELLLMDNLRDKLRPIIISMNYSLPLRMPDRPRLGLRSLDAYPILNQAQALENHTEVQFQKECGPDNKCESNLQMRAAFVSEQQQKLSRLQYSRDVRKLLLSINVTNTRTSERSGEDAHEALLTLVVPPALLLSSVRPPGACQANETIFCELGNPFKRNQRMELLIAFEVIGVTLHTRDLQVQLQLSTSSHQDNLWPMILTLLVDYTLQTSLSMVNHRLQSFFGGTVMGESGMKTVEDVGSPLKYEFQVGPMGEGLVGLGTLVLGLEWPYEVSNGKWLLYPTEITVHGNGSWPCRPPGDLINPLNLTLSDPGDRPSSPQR", "T1 sequence (P26006 876-1051 partner limits assumed)": "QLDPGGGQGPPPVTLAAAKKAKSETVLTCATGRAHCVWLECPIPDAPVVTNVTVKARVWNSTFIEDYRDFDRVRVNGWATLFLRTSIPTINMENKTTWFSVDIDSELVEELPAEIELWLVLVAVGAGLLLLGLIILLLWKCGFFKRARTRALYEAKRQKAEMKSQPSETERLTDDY", "T1 sequence (P05556 21-798)": "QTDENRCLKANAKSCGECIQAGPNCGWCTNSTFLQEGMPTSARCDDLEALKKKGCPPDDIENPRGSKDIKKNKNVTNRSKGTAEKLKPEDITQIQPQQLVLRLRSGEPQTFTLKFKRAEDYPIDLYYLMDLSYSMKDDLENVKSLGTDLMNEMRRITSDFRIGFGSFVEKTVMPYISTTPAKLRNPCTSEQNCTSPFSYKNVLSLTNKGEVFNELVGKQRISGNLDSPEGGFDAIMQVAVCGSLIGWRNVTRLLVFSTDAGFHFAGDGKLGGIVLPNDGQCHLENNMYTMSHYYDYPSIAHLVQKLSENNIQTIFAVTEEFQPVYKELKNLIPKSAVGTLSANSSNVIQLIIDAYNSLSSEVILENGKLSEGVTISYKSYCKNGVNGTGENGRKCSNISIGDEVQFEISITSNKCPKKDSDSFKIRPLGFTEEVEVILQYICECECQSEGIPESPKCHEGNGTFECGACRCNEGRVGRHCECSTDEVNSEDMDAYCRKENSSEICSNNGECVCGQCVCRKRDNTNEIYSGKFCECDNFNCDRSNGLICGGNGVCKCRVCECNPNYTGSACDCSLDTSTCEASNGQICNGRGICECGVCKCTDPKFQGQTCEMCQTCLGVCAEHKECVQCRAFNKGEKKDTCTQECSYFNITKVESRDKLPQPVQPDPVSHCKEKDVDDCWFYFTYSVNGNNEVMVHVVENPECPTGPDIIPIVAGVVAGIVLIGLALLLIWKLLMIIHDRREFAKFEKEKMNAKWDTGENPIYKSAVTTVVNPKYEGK", "experiment": "Solid phase integrin ligand binding assay", "details": "1 mM Mn2+, 1 mM Ca2+, 1 mM Mg2+", "method": "(§1) The solid phase binding assay was performed using purified soluble human α3β1, α5β1, and αVβ3 (US Biological, Swampscott, Mass.). Two (2) μg/ml of soluble integrins were added to microtiter wells for capture with immobilized monoclonal antibody against β1 or β3 subunits (mAb TS2/6 for β1 and mAb BB10 (Chemicon, Temecula, Calif.) for β3 integrins). […] After washing, bound APC was chromogenically detected by peroxidase-streptavidin conjugate anti-PC (Diapharma, West Chester, Ohio) or chromogenic substrate S-2366 (Diapharma, West Chester, Ohio). To minimize dissociation, all wash buffers contained 1 mM Mn^2+, and <15 minutes elapsed between the end of binding and beginning of color development. Functional blocking antibodies for integrins were from Chemicon (Temecula, Calif.).\n(§2) Among the neutrophil integrins that recognize the RGD motif, α3β1, α5β1, and αVβ3 are key in regulating neutrophil chemotaxis (Yauch et al., Mol. Biol. Cell 9:2751 (1998); Burns et al., J. Immunol. 166:4644 (2001); Sixt et al., J. Biol. Chem. 276:18878 (2001)). To test whether APC can bind directly to the integrins, an ELISA-like solid phase receptor-binding assay was performed (FIG. 2E). Soluble α3β1, α5β1, and αVβ3 were captured onto microtiter wells using mAbs specific for β1 or β3."}, "[5]": {"molecular_target": "T2, α5β1 (Homo sapiens, UniProt P05556+P08648)", "T2 construct": "purchased US Biological, Swampscott, Mass", "T2 sequence (P08648 42-894 limits assumed)": "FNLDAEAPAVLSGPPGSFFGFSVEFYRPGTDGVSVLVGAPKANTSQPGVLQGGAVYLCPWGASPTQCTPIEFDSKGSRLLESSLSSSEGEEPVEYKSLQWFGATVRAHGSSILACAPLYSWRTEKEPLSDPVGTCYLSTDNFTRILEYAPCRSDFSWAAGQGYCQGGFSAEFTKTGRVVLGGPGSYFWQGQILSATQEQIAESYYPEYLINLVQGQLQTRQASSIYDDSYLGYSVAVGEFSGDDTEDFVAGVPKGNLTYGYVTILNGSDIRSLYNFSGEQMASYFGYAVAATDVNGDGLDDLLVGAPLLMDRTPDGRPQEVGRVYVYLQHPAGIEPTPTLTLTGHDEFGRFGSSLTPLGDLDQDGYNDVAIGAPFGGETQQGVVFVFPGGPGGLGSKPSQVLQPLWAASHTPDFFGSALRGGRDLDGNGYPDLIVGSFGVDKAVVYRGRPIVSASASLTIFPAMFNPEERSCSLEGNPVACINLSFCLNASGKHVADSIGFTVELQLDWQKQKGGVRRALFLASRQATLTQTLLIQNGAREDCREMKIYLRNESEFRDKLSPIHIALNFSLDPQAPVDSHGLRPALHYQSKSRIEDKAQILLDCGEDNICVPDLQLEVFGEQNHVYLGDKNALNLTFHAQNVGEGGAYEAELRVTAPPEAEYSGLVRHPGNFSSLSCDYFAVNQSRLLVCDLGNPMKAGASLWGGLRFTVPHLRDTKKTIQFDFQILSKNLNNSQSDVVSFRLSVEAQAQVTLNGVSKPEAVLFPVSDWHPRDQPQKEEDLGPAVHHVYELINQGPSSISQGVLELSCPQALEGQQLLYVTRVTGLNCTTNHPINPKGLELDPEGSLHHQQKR", "T2 sequence (P08648 895-1049 partner limits assumed)": "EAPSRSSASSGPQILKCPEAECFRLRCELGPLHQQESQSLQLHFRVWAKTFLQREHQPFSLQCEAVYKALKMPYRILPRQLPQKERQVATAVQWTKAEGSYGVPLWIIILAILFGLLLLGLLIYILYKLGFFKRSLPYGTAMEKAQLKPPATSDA", "T2 sequence (P05556 21-798)": "as the sequence (P05556 21-798) above", "experiment": "Solid phase integrin ligand binding assay", "details": "1 mM Mn2+, 1 mM Ca2+, 1 mM Mg2+", "method": "as §1, §2"}, "[6]": {"molecular_target": "T3, αVβ3 (Homo sapiens, UniProt P05106+P06756)", "T3 construct": "purchased US Biological, Swampscott, Mass", "T3 sequence (P06756 31-889 limits assumed)": "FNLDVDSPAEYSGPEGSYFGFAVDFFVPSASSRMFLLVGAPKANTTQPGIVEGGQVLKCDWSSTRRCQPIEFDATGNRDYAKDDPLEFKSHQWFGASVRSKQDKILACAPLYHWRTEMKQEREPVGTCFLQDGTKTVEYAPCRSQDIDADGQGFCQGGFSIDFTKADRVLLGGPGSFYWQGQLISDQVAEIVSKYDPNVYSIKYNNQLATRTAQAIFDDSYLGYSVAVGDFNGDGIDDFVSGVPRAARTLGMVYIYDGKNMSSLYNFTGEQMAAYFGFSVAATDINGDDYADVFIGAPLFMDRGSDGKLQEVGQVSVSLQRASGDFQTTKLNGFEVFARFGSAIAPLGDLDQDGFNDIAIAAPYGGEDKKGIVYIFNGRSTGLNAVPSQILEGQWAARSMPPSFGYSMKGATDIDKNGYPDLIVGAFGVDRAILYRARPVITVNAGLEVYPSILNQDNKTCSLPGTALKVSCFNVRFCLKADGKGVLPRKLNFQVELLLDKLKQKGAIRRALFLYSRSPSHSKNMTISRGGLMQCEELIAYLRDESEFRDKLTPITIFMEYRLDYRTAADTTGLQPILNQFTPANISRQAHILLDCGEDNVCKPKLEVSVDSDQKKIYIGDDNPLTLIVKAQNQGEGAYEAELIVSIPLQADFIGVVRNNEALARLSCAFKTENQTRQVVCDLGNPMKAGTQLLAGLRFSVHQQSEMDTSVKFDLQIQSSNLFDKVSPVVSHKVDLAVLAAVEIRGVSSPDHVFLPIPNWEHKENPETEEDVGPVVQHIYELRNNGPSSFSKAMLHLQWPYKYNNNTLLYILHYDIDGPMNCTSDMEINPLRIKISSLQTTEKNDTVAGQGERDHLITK", "T3 sequence (P06756 891-1048 partner limits assumed)": "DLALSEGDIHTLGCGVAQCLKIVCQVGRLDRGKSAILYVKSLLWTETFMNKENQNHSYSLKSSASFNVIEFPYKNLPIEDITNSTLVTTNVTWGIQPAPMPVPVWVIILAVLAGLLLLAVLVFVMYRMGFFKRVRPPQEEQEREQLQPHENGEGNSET", "T3 sequence (P05106 27-788)": "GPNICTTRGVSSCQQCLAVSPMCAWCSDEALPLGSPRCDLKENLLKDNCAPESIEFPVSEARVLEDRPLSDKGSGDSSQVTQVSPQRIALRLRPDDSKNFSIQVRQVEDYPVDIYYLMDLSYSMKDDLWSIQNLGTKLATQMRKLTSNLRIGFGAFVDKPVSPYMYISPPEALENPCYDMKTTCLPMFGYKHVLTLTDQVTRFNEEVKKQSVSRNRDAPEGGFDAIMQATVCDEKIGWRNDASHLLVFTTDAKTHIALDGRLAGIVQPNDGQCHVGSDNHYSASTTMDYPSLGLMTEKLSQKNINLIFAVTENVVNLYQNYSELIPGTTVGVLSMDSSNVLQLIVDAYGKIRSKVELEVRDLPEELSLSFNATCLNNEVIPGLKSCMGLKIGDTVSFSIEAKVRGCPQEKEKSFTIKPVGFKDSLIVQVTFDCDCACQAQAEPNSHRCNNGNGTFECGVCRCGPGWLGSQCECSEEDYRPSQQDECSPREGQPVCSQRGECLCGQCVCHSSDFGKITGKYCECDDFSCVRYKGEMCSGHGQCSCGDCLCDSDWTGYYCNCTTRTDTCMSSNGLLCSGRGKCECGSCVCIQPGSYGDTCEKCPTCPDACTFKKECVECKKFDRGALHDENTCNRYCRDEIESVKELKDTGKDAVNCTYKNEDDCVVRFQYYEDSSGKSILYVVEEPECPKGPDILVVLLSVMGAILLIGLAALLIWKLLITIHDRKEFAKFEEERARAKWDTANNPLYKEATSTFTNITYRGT", "experiment": "Solid phase integrin ligand binding assay", "details": "1 mM Mn2+, 1 mM Ca2+, 1 mM Mg2+", "method": "as §1, §2"}, "[7]": {"system": "LPS treated mice", "experiment": "Neutrophil recruitment into airspace (BALF) after intranasal LPS", "assay_type": "in vivo, mice (C57BL/6)", "details": "10 μg/mouse i.v. 2 hours after LPS", "method": "Mice (C57BL/6, 6-8 weeks) were anesthetized with avertin and then intranasally administered 30 μg of LPS (Sigma-Aldrich, St. Louis, Mo.). […] Mice were sacrificed 4 hours later and bronchioalveolar lavage was harvested. Cells were fixed with 4% formaldehyde for 20 minutes. Cells were counted using microbeads (Polyscience, Niles, Ill.) by flow cytometry. Cells were stained with Gr-1 APC antibody (eBioscience, San Diego, Calif.) and collected by flow cytometry. Data were analyzed using FlowJo software (Tree Star, Ashland, Oreg.)."}, "[8]": {"system": "lipopolysaccharide (LPS)-induced pulmonary inflammation", "details": "intravenous administration; cited from earlier work"}}}
{"molecule": "B1", "values": [{"measurement": "directional migration of neutrophils on FN towards fMLP", "setting": "[1]", "value": "decreased"}, {"measurement": "direction of movement", "setting": "[2]", "value": "without significantly altering"}, {"measurement": "decrease of average lateral migration speed (S)", "setting": "[2]; over 30 neutrophils in each group", "value": "more than 2.5 fold"}, {"measurement": "neutrophil migration on FN toward the fMLP tip", "setting": "[2]; rhAPC pre-treatment", "value": "dramatically decreased"}, {"measurement": "rhAPC binding to the neutrophil surface", "setting": "[3]", "value": "significantly increased"}, {"measurement": "direct binding to soluble α3β1", "setting": "[4]", "value": "bound"}, {"measurement": "direct binding to soluble α5β1", "setting": "[5]", "value": "bound"}, {"measurement": "direct binding to soluble αVβ3", "setting": "[6]", "value": "bound"}, {"measurement": "neutrophil recruitment in the BALF", "setting": "[7]", "value": "significantly reduced"}, {"measurement": "LPS-induced pulmonary inflammation", "setting": "[8]", "value": "reduce"}]}
